In the data set the test system is preKARS2 (cytosolic precursor of human mitochondrial lysyl-tRNA synthetase) (human), Q15046-2. The data set is described as follows: EMSA. To be noted: 10 mM Mg2+; unmodified T7 transcript; EMSA: 20 mM Tris-HCl pH 7.5, 150 mM NaCl, 10 mM MgCl2, 5 mM DTT, 10% glycerol, 0.1 mg/ml BSA, 30 C, 15 min; native 8% PAGE in 0.5x Tris-borate pH 8.3, 5% …. On the technique in general: Mobility shift assays separate free from complexed probe on a gel.

From article PMC3683045 come the findings set out here.

Chain of preKARS2 (cytosolic precursor of human mitochondrial lysyl-tRNA synthetase) (human), Q15046-2 (Q15046 other isoform, or with tags, fused parts or gaps): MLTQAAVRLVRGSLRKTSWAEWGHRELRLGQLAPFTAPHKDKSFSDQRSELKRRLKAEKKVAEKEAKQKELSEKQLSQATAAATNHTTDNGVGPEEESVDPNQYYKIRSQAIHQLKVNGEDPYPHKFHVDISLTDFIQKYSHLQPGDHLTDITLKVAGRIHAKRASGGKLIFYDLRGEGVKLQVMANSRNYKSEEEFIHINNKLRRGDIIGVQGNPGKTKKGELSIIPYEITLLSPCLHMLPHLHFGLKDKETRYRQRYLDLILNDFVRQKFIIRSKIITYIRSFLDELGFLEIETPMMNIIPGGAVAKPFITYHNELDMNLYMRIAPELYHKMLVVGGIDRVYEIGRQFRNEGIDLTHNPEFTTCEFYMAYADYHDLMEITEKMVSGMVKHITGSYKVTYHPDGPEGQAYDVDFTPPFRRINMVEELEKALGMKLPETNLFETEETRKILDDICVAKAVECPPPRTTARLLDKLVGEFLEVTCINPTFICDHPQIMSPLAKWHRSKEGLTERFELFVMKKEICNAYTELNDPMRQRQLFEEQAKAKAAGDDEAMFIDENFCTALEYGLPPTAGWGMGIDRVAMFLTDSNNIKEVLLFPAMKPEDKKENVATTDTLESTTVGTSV

In general, Kd refers to the concentration at which binding is half-saturated. A lower Kd goes with higher affinity. Substance tRK1 (yeast tRNALys CUU) gave a Kd of 300 nM.
